# B1: Large envelope protein (Hepatitis B virus genotype D subtype adw (isolate United Kingdom/adyw/1979)), P03139-1 (parent)
# chain: MGQNLSTSNPLGFFPDHQLDPAFRANTNNPDWDFNPNKDTWPDANKVGAGAFGLGFTPPHGGLLGWSPQAQGIMQTLPANPPPASTNRQSGRQPTPLSPPLRTTHPQAMHWNSTTFHQTLQDPRVRGLYFPAGGSSSGTVNPVPTTTSPISSIFSRIGDPALNMENITSGFLGPLLVLQAGFFLLTRILTIPQSLDSWWTSLNFLGGTTVCLGQNSQSPISNHSPTSCPPTCPGYRWMCLRRFIIFLFILLLCLIFLLVLLDYQGMLPVCPLIPGSSTTSTGSCRTCTTPAQGISMYPSCCCTKPSDGNCTCIPIPSSWAFGKFLWEWASARFSWLSLLVPFVQWFVGLSPIVWLSVIWMMWYWGPSLYSILSPFLPLLPIFFCLWAYI
# partner: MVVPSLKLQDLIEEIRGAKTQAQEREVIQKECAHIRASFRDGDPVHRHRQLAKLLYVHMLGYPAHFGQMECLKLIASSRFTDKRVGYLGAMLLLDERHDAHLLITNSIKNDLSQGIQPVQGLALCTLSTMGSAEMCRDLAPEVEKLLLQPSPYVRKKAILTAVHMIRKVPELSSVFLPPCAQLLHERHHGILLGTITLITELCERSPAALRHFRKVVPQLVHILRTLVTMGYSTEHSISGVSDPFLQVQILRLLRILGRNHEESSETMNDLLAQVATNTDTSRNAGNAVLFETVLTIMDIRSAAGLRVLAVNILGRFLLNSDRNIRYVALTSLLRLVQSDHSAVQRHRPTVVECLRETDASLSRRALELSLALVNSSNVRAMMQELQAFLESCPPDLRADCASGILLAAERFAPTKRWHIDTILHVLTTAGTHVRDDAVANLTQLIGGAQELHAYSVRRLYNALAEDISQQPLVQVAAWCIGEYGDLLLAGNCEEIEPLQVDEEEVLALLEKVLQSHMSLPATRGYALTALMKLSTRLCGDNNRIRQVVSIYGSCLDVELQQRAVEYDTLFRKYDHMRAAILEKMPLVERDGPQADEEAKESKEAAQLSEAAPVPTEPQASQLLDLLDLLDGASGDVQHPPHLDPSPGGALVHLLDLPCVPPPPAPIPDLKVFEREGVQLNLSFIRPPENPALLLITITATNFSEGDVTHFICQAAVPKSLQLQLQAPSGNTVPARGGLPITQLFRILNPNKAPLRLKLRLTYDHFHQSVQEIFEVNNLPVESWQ
# B2: AP-1 complex subunit gamma-like 2 (Homo sapiens), O75843 (parent)
# chain: B1 partner
# Variants of: B1
# Conditions: with ap1g2_human AP1G2, O75843
row,Variant,effect of a mutation on the interaction
1,D33A,decreasing interaction strength
2,F34A,decreasing interaction strength
3,W32A,decreasing interaction strength
4,D31A,decreasing interaction strength

# Variants of: B2
# Conditions: with S
row,Variant,effect of a mutation on the interaction
1,P754A,decreasing interaction strength
2,A716G,decreasing interaction strength
3,S720A,decreasing interaction strength
4,R756Q,decreasing interaction strength
5,R756A,decreasing interaction strength
6,K719Q,decreasing interaction strength
7,R760A,decreasing interaction strength

# Source: IntAct's records for PubMed 23851574
